Experiments:
[1] = biological target: T1, HER-2 (erbB-2), human receptor (human, UniProt P04626 23-1255); assay: saturation binding to HER-2-transfected Cos-7 cells, herstatin ELISA, nonlinear regression (FIG. 5A)
T1 construct: On HER-2-transfected Cos-7 cells or 3T3/HER-2 cells (cell ELISA), or from transfected Cos-7 cell extracts (pull-down)
Procedure: (§1) ELISA. […] Cells were washed with Phosphate Buffered Saline (PBS) and extracted in 50 mM Tris-HCl, pH 7.0, 1.0% NP-40.
(§2) Statistical comparisons between different binding curves were performed by extra sums-of-squares F-test nonlinear regression coefficients. All tests were performed (α=0.05) using GraphPad Prism 4™ software (GraphPad™ Software, 1994-2003).

[2] = biological target: T2, EGFR (HER-1, erbB-1), human epidermal growth factor receptor (human, UniProt P00533 25-1210); assay: saturation binding to EGFR-transfected Cos-7 cells, herstatin ELISA, nonlinear regression (FIG. 5A)
T2 construct: also called EGF receptor
Procedure: as §1, §2

[3] = biological target: T3, IGF-1R, insulin-like growth factor 1 receptor (human, UniProt P08069 31-1367); assay: saturation binding to IGF-IR transfected 3T3 cells, herstatin ELISA, nonlinear regression
T3 construct: On IGF-IR transfected 3T3 cells (hIGF-1R-3T3) in cell ELISA, or from their extracts in pull-downs (detected through the beta subunit); The entry is the precursor; the processing into alpha and beta subunits is not described; also called IGF-IR; IGF-1 receptor
Procedure: as §1, §2

[4] = biological target: HER-4 (erbB-4), human receptor (human, UniProt Q15303 26-1308); assay: ELISA of Int8 bound to transfected cells (FIG. 3B)
Procedure: as §1

[5] = biological target: T3, IGF-1R, insulin-like growth factor 1 …; assay: saturation binding to IGF-IR/3T3 cells, herstatin ELISA, nonlinear regression (FIG. 5B)
Procedure: as §1, §2

[6] = biological target: T1, HER-2 (erbB-2), human receptor; assay: saturation binding to HER-2/3T3 cells, herstatin ELISA, nonlinear regression (FIG. 5B)
Procedure: as §1, §2

[7] = biological target: T3, IGF-1R, insulin-like growth factor 1 …; assay: saturation binding to IGF-IR 3T3 cells, herstatin ELISA (determination of EXAMPLE 2)
Procedure: as §1, §2

[8] = biological target: T1, HER-2 (erbB-2), human receptor; assay: herstatin ELISA of peptide bound to HER-2 overexpressing cells
Procedure: as §1

[9] = biological target: T1, HER-2 (erbB-2), human receptor; assay: pull-down of HER-2 from transfected cell extracts, Western blot
Procedure: Methods. Cell lines, expression vectors, protein purification, pull down assays, antibodies and ELISA assays were as described under EXAMPLE 1, herein above. […] Following washing steps, the protein bound to the agarose was analyzed as a Western blot with receptor-specific antibodies.

T3 sequence (P08069 31-1367 limits assumed): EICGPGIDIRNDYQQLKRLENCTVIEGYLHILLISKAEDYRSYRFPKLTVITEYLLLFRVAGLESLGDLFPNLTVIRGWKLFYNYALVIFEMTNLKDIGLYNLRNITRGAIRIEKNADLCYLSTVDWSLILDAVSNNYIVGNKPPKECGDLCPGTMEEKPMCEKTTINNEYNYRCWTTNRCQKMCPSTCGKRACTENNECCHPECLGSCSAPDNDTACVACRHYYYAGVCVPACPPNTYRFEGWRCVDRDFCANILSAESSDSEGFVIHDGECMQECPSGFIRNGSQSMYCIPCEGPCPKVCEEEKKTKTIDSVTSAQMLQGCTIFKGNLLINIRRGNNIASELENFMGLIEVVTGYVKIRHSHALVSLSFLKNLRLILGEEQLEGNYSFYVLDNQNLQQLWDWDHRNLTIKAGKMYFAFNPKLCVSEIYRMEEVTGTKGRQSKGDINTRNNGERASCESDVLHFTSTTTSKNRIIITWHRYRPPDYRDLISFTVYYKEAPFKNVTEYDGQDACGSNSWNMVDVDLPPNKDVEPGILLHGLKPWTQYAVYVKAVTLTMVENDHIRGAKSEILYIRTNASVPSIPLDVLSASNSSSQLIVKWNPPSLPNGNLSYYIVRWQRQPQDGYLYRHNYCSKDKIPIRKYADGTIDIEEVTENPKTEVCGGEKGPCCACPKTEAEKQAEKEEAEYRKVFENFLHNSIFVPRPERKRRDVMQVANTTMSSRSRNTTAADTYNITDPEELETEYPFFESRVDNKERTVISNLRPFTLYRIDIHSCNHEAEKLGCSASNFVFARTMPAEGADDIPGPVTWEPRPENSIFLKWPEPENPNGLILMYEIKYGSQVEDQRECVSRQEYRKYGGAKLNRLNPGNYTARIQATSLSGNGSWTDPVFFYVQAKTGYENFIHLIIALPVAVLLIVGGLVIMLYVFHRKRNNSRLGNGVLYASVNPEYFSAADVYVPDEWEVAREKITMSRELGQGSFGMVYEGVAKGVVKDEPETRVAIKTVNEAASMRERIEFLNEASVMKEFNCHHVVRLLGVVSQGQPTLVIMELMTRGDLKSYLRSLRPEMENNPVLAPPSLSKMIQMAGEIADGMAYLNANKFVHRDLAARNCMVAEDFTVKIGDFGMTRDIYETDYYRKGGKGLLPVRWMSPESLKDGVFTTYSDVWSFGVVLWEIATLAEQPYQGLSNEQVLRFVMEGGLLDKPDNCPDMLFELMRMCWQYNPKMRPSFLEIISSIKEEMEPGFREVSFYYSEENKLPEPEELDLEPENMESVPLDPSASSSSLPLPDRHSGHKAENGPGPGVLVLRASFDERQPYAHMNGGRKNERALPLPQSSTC
Chain of HER-4 (erbB-4), human receptor (Q15303 26-1308 limits assumed): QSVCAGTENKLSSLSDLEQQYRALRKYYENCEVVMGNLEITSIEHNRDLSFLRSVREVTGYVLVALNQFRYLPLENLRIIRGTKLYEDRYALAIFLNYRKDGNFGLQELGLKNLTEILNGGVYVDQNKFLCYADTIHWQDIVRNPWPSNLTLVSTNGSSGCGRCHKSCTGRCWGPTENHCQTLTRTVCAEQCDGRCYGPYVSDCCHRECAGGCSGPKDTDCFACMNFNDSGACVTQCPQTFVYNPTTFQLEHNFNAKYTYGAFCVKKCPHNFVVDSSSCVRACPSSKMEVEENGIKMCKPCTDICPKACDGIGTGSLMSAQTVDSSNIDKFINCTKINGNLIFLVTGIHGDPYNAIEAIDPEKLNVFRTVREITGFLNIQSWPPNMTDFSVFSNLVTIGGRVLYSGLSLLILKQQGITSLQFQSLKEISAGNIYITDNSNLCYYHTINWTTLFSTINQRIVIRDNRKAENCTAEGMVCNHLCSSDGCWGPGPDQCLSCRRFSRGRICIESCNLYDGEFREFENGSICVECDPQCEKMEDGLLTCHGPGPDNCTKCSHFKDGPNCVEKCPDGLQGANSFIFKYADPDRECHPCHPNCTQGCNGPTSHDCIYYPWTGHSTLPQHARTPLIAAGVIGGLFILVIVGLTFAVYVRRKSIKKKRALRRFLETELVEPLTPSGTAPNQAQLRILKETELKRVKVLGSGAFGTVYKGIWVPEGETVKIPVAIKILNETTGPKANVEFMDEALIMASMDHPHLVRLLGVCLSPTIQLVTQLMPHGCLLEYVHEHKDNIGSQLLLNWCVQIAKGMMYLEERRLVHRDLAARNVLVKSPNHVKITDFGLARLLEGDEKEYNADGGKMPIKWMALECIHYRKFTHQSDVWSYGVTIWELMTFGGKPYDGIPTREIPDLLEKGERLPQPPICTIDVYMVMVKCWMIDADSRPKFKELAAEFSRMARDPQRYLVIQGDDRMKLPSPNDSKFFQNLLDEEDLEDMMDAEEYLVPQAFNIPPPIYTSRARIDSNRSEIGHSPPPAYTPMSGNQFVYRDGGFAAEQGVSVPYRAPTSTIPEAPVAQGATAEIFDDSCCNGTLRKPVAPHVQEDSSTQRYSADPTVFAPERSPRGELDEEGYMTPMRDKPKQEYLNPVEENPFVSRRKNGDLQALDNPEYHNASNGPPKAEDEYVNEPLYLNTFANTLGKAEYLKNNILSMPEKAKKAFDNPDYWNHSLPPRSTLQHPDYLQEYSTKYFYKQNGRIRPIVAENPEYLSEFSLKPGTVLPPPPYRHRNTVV

Row | Kd [1] | Kd [2] | Kd [3] | binding result [4] | Kd [5] | Kd [6] | Kd [7] | fold weaker binding than the wildtype peptide [8] | fold weaker binding than the wild type sequence (SEQ ID NO:24) [9] | Binder
1 | 50 nM | 78 nM | 40 to 150 nM | binds | 70 nM | 66 nM | 40 nM | – | – | RBD Int8 polypeptide (intron 8-encoded receptor binding domain of herstatin, expressed as a bacterial peptide) (Purified from BL-21 bacteria; also called Int8 RBD polypeptide; Int8 peptide; not shown: pET 30 vector-encoded tags (His tag used for nickel purification, S-protein tag used for immobilisation)) GTHSLPPRPAAVPVPLRMQPGPAHPVLSFLRPSWDLVSAFYSLPLAPLSPTSVPISPVSVGRGPDPDAHVAVDLSRYEG
2 | – | – | – | – | – | – | – | ~2 fold | ~2 fold | mutant Int8 polypeptide with Arg to Ile mutation at residue 31 (peptide, not shown: small tags and cut ends, also called mutant RBD Int8 polypeptide; mutant Int8 RBD polypeptide) GTHSLPPRPAAVPVPLRMQPGPAHPVLSFLIPSWDLVSAFYSLPLAPLSPTSVPISPVSVGRGPDPDAHVAVDLSRYEG
